The record followed here is patent publication US20210346432A1 (Memorial Sloan Kettering, published 2021).

Broadly, the Kd is the equilibrium constant for the complex coming apart. High values mean a looser complex, low ones a tighter complex.

To fix the notation:
T1: ET140-p1 (human)
T1 construct: also called peptide 1; ET140-pl
T1 peptide: Biotin-SGSGLQMAGQCSQNEYFDS

T2: ET140-p2 (human)
T2 construct: also called peptide 2
T2 peptide: Biotin-SGSGQMAGQCSQNEYFDSL

T3: ET140-p3 (human)
T3 construct: also called peptide 3
T3 peptide: Biotin-SGSGMAGQCSQNEYFDSLL

T4: ET140-p4 (human)
T4 construct: also called peptide 4
T4 peptide: Biotin-SGSGAGQCSQNEYFDSLLH

T5: ET140-p5 (human)
T5 construct: also called peptide 5
T5 peptide: Biotin-SGSGGQCSQNEYFDSLLHA

T6: ET140-p7 (human, cysteine pairing not given here)
T6 construct: also called peptide 7
T6 peptide: Biotin-SGSGCSQNEYFDSLLHACI

T7: ET140-p8 (human)
T7 construct: also called peptide 8
T7 peptide: Biotin-SGSGSQNEYFDSLLHACIP

T8: ET140-p9 (human, cysteine pairing not given here)
T8 construct: also called peptide 9
T8 peptide: Biotin-SGSGQNEYFDSLLHACIPC

T9: ET140-p10 (human, cysteine pairing not given here)
T9 construct: also called peptide 10
T9 peptide: Biotin-SGSGNEYFDSLLHACIPCQ

T10: ET140-p14 (human, cysteine pairing not given here)
T10 construct: also called peptide 14
T10 peptide: Biotin-SGSGDSLLHACIPCQLRCS

T11: ET140-p15 (human, cysteine pairing not given here)
T11 construct: also called peptide 15
T11 peptide: Biotin-SGSGSLLHACIPCQLRCSS

T12: ET140-p16 (human, cysteine pairing not given here)
T12 construct: also called peptide 16
T12 peptide: Biotin-SGSGLLHACIPCQLRCSSN

T13: ET140-p23 (human, cysteine pairing not given here)
T13 construct: also called peptide 23
T13 peptide: Biotin-SGSGCQLRCSSNTPPLTCQ

T14: ET140-p24 (human, cysteine pairing not given here)
T14 construct: also called peptide 24
T14 peptide: Biotin-SGSGQLRCSSNTPPLTCQR

T15: ET140-p29 (human, cysteine pairing not given here)
T15 construct: also called peptide 29
T15 peptide: Biotin-SGSGSNTPPLTCQRYCNAS

T16: ET140-p30 (human, cysteine pairing not given here)
T16 construct: also called peptide 30
T16 peptide: Biotin-SGSGNTPPLTCQRYCNASV

T17: ET140-p32 (human, cysteine pairing not given here)
T17 construct: also called peptide 32
T17 peptide: Biotin-SGSGPPLTCQRYCNASVTN

T18: ET140-p33 (human, cysteine pairing not given here)
T18 construct: also called peptide 33
T18 peptide: Biotin-SGSGPLTCQRYCNASVTNS

T19: ET140-p34 (human, cysteine pairing not given here)
T19 construct: also called peptide 34
T19 peptide: Biotin-SGSGLTCQRYCNASVTNSV

T20: ET140-p35 (human, cysteine pairing not given here)
T20 construct: also called peptide 35
T20 peptide: Biotin-SGSGTCQRYCNASVTNSVK

T21: ET140-p36 (human, cysteine pairing not given here)
T21 construct: also called peptide 36
T21 peptide: Biotin-SGSGCQRYCNASVTNSVKG

T22: ET140-p38 (human)
T22 construct: also called peptide 38
T22 peptide: Biotin-SGSGRYCNASVTNSVKGTN

T23: ET140-p39 (human)
T23 construct: also called peptide 39
T23 peptide: Biotin-SGSGYCNASVTNSVKGTNA

T24: biotinylated BCMA-Fc protein (human, UniProt Q02223 1-54, biotinylated (site not stated))
T24 construct: also called BCMA recombinant antigen; not shown: Fc part
T24 sequence: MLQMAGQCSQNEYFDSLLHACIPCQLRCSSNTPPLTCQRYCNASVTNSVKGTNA

B1: ET140-204 mIgG1 (antibody, V domains shown)
VH: EVQLVQSGAEMKKPGASLKLSCKASGYTFIDYYVYWMRQAPGQGLESMGWINPNSGGTNYAQKFQGRVTMTRDTSISTAYMELSRLRSDDTAMYYCARSQRDGYMDYWGQGTLVTVSS
VL: QSALTQPASVSASPGQSIAISCTGTSSDVGWYQQHPGKAPKLMIYEDSKRPSGVSNRFSGSKSGNTASLTISGLQAEDEADYYCSSNTRSSTLVFGGGTKLTVLG
notes: also called ET140-54 mIgG1; ET140-54
B2: ET140-153 mIgG1 (antibody, V domains shown)
VH: QVQLVQSGAEVKKPGSSVKVSCKASGGTFSSYAISWVRQAPGQGLEWMGRIIPILGIANYAQKFQGRVTITADKSTSTAYMELSSLRSEDTAVYYCARGGYYSHDMWSEDWGQGTLVTVSS
VL: LPVLTQPPSASGTPGQRVTISCSGRSSNIGSNSVNWYRQLPGAAPKLLIYSNNQRPPGVPVRFSGSKSGTSASLAISGLQSEDEATYYCATWDDNLNVHYVFGTGTKVTVLG
notes: also called ET140-3 mIgG1; ET140-3
B3: ET140-174 mIgG1 (antibody, V domains shown)
VH: EVQLVQSGAEVKKPGESLKISCKGSGYSFTSYWIGWVRQMPGKGLEWMGIIYPGDSDTRYSPSFQGHVTISADKSISTAYLQWSSLKASDTAMYYCARYSGSFDNWGQGTLVTVSS
VL: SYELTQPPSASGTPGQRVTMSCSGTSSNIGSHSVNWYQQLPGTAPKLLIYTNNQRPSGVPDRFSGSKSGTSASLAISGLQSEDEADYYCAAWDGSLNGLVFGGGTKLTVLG
notes: also called ET140-24 mIgG1; ET140-24

No end group written: not given here. *: point of attachment. Biotin = O=C1N[C@H]2[C@H](CS[C@H]2CCCCC(=O)*)N1

The target in one test is T1, ET140-p1. As to the kind of experiment: peptide ELISA on streptavidin plate, antibody 1 ug/mL. The protocol:
(§1) The peptides were coated onto Streptavidin plates at 2 ug/mL in PBST (PBS+0.05% Tween-20). After washing and blocking with 3% BSA. […] “mIgG1” used in all Examples represents that the variable region is fully human and the Fc part is mouse IgG1. Then HRP anti-mouse IgG detection antibody was added to each well. Finally, the color was developed using TMB substrate. A450 was recorded for data analysis.
For orientation: ELISA stands for enzyme-linked immunosorbent assay.
On to B1, for which the A450 turned out to be 0.069.

B2: the A450 is 0.084.

Turning to B3, the A450 turned out to be 0.084.

A further test deals with T2, ET140-p2. The test is described as above. As to the method:
as §1
The molecule B1 displayed an A450 of 0.076.

Consider B2, for which the A450 is 0.076.

For B3, the A450 came out at 0.079.

A further test addresses T3, ET140-p3. Described as above. As to the method:
as §1
B1 had an A450 of 0.083.

As for B2, the A450 turned out to be 0.086.

B3 had an A450 of 0.08.

Another test concerns the target T4, ET140-p4. The description is as above. As to the method: as §1
Molecule B1 returned an A450 of 0.073.

B2 gave an A450 of 0.094.

As to B3, the A450 was determined as 0.081.

Another test deals with T5, ET140-p5. The description is as above. The protocol:
as §1
The molecule B1 gave an A450 of 0.069.

In the case of B2, the A450 came to 0.08.

For B3, the A450 was 0.073.

In another test the target is T6, ET140-p7. The test is described as above. As to the method:
as §1
B1 yielded an A450 of 0.075.

The molecule B2 yielded an A450 of 0.381.

Take B3: the A450 came out at 0.087.

Another test concerns the target T7, ET140-p8. The test is described as above. The protocol: as §1
As for B1, the A450 was 0.073.

Molecule B2 displayed an A450 of 0.178.

B3 gave an A450 of 0.083.

The target in a further test is T8, ET140-p9. Described as above. The protocol: as §1
As for B1, the A450 stood at 0.087.

B2 registered an A450 of 2.25.

The molecule B3 yielded an A450 of 0.104.

The target in a further test is T9, ET140-p10. The test is described as above. The protocol: as §1
B1: the A450 came to 0.087.

Turning to B2, the A450 is 0.758.

Take B3: the A450 turned out to be 0.115.

Another test deals with T10, ET140-p14. Described as above. As to the method:
as §1
In the case of B1, the A450 is 0.104.

Turning to B2, the A450 turned out to be 0.124.

For the molecule B3, the A450 was 0.105.

The next test has as its target T11, ET140-p15. The test is described as above. As to the method: as §1
Regarding B1, the A450 is 0.276.

Consider B2, for which the A450 turned out to be 0.328.

B3 yielded an A450 of 0.268.

Another test deals with T12, ET140-p16. The description is as above. As to the method:
as §1
As to B1, the A450 was 0.263.

B2 displayed an A450 of 0.266.

For B3, the A450 amounted to 0.231.

The target in another test is T13, ET140-p23. The description is as above. The protocol:
as §1
B1 displayed an A450 of 0.101.

For the molecule B2, the A450 worked out at 0.113.

B3 had an A450 of 0.109.

For the next test, the target named is T14, ET140-p24. Described as above. The protocol:
as §1
For the molecule B1, the A450 turned out to be 0.325.

For B2, the A450 is 0.382.

B3 had an A450 of 0.357.

The next test concerns the target T15, ET140-p29. The test is described as above. The protocol:
as §1
B1 returned an A450 of 0.083.

Regarding B2, the A450 is 0.109.

B3 had an A450 of 0.09.

Another test deals with T16, ET140-p30. The test is described as above. As to the method:
as §1
The molecule B1 yielded an A450 of 0.08.

Turning to B2, the A450 stood at 0.111.

The molecule B3 gave an A450 of 0.083.

For a further test, the target named is T17, ET140-p32. Described as above. The protocol: as §1
For the molecule B1, the A450 amounted to 0.092.

Consider B2, for which the A450 was 0.099.

As to B3, the A450 is 0.092.

The target in another test is T18, ET140-p33. The test is described as above. The protocol: as §1
For B1, the A450 is 0.084.

The molecule B2 showed an A450 of 0.116.

In the case of B3, the A450 came out at 0.083.

In a further test the target is T19, ET140-p34. The description is as above. The protocol:
as §1
On to B1, for which the A450 is 0.07.

As to B2, the A450 came out at 0.099.

Molecule B3 returned an A450 of 0.069.

In another test the target is T20, ET140-p35. Described as above. As to the method: as §1
B1 had an A450 of 0.071.

B2 yielded an A450 of 0.072.

Molecule B3 had an A450 of 0.076.

The target in another test is T21, ET140-p36. The description is as above. As to the method: as §1
As for B1, the A450 was 0.085.

The molecule B2 registered an A450 of 0.089.

B3 displayed an A450 of 0.084.

The target in another test is T22, ET140-p38. Described as above. The protocol: as §1
Consider B1, for which the A450 amounted to 0.069.

Turning to B2, the A450 was found to be 0.08.

B3 returned an A450 of 0.071.

For another test, the target named is T23, ET140-p39. Described as above. As to the method: as §1
B1: the A450 was found to be 0.074.

Regarding B2, the A450 turned out to be 0.072.

For the molecule B3, the A450 was found to be 0.071.

The next test deals with T24, biotinylated BCMA-Fc protein. Briefly: SPR (BIAcore X100), biotinylated BCMA-Fc captured on Sensor Chip CAP, antibody injected, 1:1 Langmuir fit. The protocol:
In brief, 50 μg/mL of modified streptavidin was immobilized onto a Sensor Chip CAP by flowing the Biotin CAPture Reagent through the flow cells at 2 μL/min for 5 minutes. 10 ug/mL biotinylated BCMA-Fc protein was loaded onto the flow cell at a rate of 30 μL/min for 3 minutes. Following the standard protocol for kinetics, a series of injection of ESK1 was performed between 0.6 and 15 μg/mL, each step consisting of a 3 minute injection at 30 μL/min and 3 minute disassociation. […] Kinetic constants were derived by the global fitting (1:1 Langmuir binding model) using BIAcore ×100 Evaluation Software (Version 2.0.1).
Background: SPR reads the build-up and loss of mass on a sensor chip optically.
As for B1, the affinity, expressed as Kd, was 8.1 nM. That is a single-digit nanomolar value.

The molecule B2 gave a Kd of 1.2 nM.

In turn, B3 came in with a dissociation constant (Kd) of 4.8 nM.
